Target: 7c12 monobody displayed on phage
Test: ELISA

**Q.** How did the fold reduction of binding against WT turn out when GST-Abl SH2 I164E (domain or fragment) was run?
**A.** 400 fold

Source: publication PMC3202669
